Numbering of substitutions follows the chain as printed. Names may count otherwise. “And” between values parts separate entries of the source, which are not always exact repeats. Equal entries are not always repeated.
T1: B7-H4ECD his-tagged protein (Sinobiologics) (human, UniProt Q7Z7D3 25-259)
T1 construct: Bought protein; Result paragraph calls the target human B7-H4; also called B7-H4 extracellular domain; not shown: his tag
T1 sequence: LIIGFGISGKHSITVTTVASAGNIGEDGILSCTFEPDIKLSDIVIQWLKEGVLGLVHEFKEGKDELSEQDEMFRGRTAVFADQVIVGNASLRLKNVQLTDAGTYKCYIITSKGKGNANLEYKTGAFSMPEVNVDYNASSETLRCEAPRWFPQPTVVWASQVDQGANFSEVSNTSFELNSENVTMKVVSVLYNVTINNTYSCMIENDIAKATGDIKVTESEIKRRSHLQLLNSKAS

T2: mouse B7-H4ECD mIgG2a Fc fusion protein (mouse, UniProt Q7TSP5 25-257, limits assumed)
T2 construct: also called mouse B7-H4-mIg fusion protein; Mouse B7-H4-mouse-Ig Fusion Protein; not shown: mouse IgG2a Fc
T2 sequence: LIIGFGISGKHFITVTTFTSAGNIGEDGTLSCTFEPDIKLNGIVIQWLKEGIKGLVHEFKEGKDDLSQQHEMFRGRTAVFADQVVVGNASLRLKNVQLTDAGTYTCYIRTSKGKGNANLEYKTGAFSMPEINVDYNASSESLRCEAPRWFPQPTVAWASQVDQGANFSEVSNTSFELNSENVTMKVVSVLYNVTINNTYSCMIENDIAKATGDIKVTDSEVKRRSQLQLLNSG

T3: human B7-H4 expressed on cells (human, UniProt Q7Z7D3 25-282)
T3 construct: the cell line is named under assay or readout; also called full length human B7-H4 on HEK293 cells; 293T.hB7-H4
T3 sequence: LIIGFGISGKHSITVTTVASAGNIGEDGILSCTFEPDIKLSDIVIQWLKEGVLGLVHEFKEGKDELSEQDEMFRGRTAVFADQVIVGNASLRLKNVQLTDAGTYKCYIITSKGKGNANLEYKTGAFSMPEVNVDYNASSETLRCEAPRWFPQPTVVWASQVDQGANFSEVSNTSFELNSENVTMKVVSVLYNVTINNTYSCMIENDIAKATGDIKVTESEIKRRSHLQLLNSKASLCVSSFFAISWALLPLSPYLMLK

T4: B7-H4 fusion protein Variant 1: IgV residues 29-149 of SEQ ID NO:1 (human, UniProt Q7Z7D3 29-149)
T4 construct: Human IgG1 Fc fusion protein; also called IgV only; not shown: human IgG1 Fc
T4 chain: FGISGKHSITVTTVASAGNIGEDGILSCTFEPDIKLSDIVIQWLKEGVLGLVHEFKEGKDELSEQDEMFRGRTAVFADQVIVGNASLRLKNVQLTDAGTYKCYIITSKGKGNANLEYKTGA

T5: B7-H4 fusion protein Variant 2: IgV residues 29-154 of SEQ ID NO:1 (human, UniProt Q7Z7D3 29-154)
T5 construct: Human IgG1 Fc fusion protein; also called IgV only; not shown: human IgG1 Fc
T5 chain: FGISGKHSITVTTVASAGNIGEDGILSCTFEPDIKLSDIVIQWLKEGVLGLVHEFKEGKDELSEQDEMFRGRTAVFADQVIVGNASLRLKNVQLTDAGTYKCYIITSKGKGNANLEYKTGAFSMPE

T6: B7-H4 fusion protein Variant 3: IgV residues 29-158 of SEQ ID NO:1 (human, UniProt Q7Z7D3 29-158)
T6 construct: Human IgG1 Fc fusion protein; also called IgV only; not shown: human IgG1 Fc
T6 chain: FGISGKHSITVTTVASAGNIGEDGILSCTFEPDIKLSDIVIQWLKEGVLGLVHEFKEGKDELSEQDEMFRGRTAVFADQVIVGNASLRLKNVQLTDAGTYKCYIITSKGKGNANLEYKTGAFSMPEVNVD

T7: B7-H4 fusion protein Variant 5: IgC residues 154-259 of SEQ ID NO:1 (human, UniProt Q7Z7D3 154-259)
T7 construct: Human IgG1 Fc fusion protein; also called IgC only; not shown: human IgG1 Fc
T7 sequence: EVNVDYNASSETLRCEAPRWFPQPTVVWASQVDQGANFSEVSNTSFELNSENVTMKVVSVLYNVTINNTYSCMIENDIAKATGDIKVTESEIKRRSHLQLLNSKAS

B1: chimeric 6H3 (antibody, V domains shown)
VH: EVQLQQSGPVLVKPGTSVKMSCKASGYTFTDYYMNWVKQSHGKSLEWIGVINPYNGDTTYNQKFKGKATLTVDKSSSTAYMEVNSLTFEDSAVYYCARYPESTYWGQGTLVTVSA
VL: DVVMTQTPLSLPVSLGDQASISCRSSQSLVHINGNTYLHWYLQKPGQSPKVLIYKVSNRFSGVPDRFSGSGSGTDFTLKISRVEAEDLGVYFCSQSTHVPLTFGAGTKLELK
notes: Mouse variable regions with constant regions from the human IgG1 heavy chain and human kappa light chain; also called human chimeric 6H3; hc6H3
B2: humanized 6H3 variant 9 (antibody, V domains shown)
VH: EVQLVQSGAEVKKPGASVKVSCKASGYTFTDYYMNWVRQAPGQGLEWIGIINPYNGDTSYNQKFKGRVTLTVDKSTSTAYMELSSLRSEDTAVYYCARYPESTYWGQGTLVTVSS
VL: DIVMTQTPLSLPVTLGQPASISCRSSQSLVHINGNTYLHWYQQRPGQSPRVLIYKVSNRFSGVPDRFSGSGSGTDFTLKISRVEAEDVGVYFCSQSTHVPLTFGQGTKVEIK
notes: also called V9; 6H3 V9
B3: humanized 6H3 variant 12 (antibody, V domains shown)
VH: B2 VH
VL: B2 VL with Q42L, R50K, Q105A
notes: also called V12; 6H3 V12
B4: humanized 6H3 variant 14 (antibody, V domains shown)
VH: B2 VH with V11M, G44S, I50V, S59T, K65Q, L70V, T76A, S77T
VL: B2 VL with Q42L, R50K, Q105A
notes: also called V14; 6H3 V14
B5: humanized 6H3 variant 13 (antibody, V domains shown)
VH: B2 VH with V11M, G44S, I48M, I50V, S59T, K65Q, L70V, T71A, T76A, S77T
VL: B2 VL with Q42L, R50K, Q105A
notes: also called V13; H2B L2C
B6: anti-human B7-H4 antibody 2H9 (antibody, V domains shown)
VH: EVQLVESGGNLVKPGGSLKLSCAASGFTFSNSAMSWVRQTPEKRLEWVATISDGGRYTYYPDNVKGRFTISRDNAKNNLYLQMSHLKSEDTALYYCARDRPHWYFDVWGTGATVTVSS
VL: DIVLTQSPASLAVSLGQRATISCRASESIDNYGISFMHWYQQKPGQPPKLLIYRASNLESGIPARFSGSGSRTDFTLTINPVETDDVATYFCQQSDEGRTFGGGTKLEIK
notes: Mouse anti-human B7-H4 antibody; also called clone 2H9
B7: anti-human B7-H4 antibody 2D1 (antibody, V domains shown)
VH: EVQLVESGGGLVKPGGSLKLSCAASGFTFNSHGMSWVRQTPEKRLDWVATISDGGTYTYYPVNVKGRFTISRDNAKNNLYLQMSHLKSEDTAMYYCARDGGGGAYWGQGTLVTVSA
VL: B1 VL with Q27H, I32S, K50N, V51L, K55I, L101P
notes: Mouse anti-human B7-H4 antibody; also called clone 2D1

What follows are binders tested against T1, B7-H4ECD his-tagged protein … (assay: ELISA, B7-H4ECD his-tagged protein coated).
Procedure: 100 μl 1 μg/ml B7-H4ECD his-tagged protein (Sinobiologics) diluted in PBS was immobilized on flat bottom 96 well plate (Costar 9017) overnight at 4° C. Plates were washed twice with PBS+0.1% PS-20 and blocked with 200 μl/well PBS 10% FBS at RT for 1 hr. 100 μl chimeric 6H3 and 14 selected 6H3 humanized variants diluted in PBS 10% FBS were added to each well and incubated at RT for 1 hr. Plates were washed three times and 100 μl 1 μg/ml anti-human Ig HRP (Sigma) was added to each well and incubated at RT for 1 hr. Plates were washed six times and 100 μl TMB substrate (SurModics) was added to each well for 5-15 mins 100 μl stop solution (0.1M Sulfuric acid) was added to each well. Plates were read at Absorbance 450 nm by PerkinElmer EnVision 2104 Multilabel Reader.

Binder	EC50 [nM]
B1	0.62
B2	0.75
B3	0.78
B4	0.68
B5	0.92

These binders were tested against T2, mouse B7-H4ECD mIgG2a Fc fusion protein (assay: ELISA, mouse B7-H4ECD mIgG2a Fc fusion coated).
Procedure: 100 μg/ml mouse B7-H4ECD mIgG2a Fc fusion protein diluted in PBS was immobilized on flat bottom 96 well plate (Costar 9017) overnight at 4° C. Plates were washed twice with PBS+0.1% PS-20 and blocked with 200 μl/well PBS 10% FBS at RT for 1 hr. 100 μl chimeric 6H3 and 14 selected 6H3 humanized variants diluted in PBS 10% FBS were added to each well and incubated at RT for 1 hr. Plates were washed three times and 100 μl 1 μg/ml anti-human Ig HRP (Sigma) was added to each well and incubated at RT for 1 hr. Plates were washed six times and 100 μl TMB substrate (SurModics) was added to each well for 5-15 mins 100 μl stop solution (0.1M Sulfuric acid) was added to each well. Plates were read at Absorbance 450 nm by PerkinElmer EnVision 2104 Multilabel Reader.

Binder	EC50 [nM]
B1	0.09
B2	0.07
B3	0.09
B4	0.11
B5	0.13

The binders below were run against T3, human B7-H4 expressed on cells (assay: flow cytometry on HEK293.hB7-H4 transfectants, one-site specific binding fit).
Procedure: For each staining, 0.2 million HEK293.hB7-H4 transfectants were resuspended in 100 μl flow cytometry buffer (PBS+2% FBS). A serial dilution of chimeric 6H3 and 14 humanized variants of 0, 0.1 ng, 0.3 ng, 1 ng, 3 ng, 10 ng, 30 ng, 100 ng, 300 ng, 1 μg, 3 μg and 10 μg were added to the cells and incubated at 4° C. for 30 min. Cells were then washed twice with 2 ml flow cytometry buffer, and resuspended in 100 μl flow cytometry buffer. 1 μl anti-hIg PE secondary antibody (Biolegend) was added and incubated with the cells for 15 mins Samples were then washed and resuspended in 100 μl flow cytometry buffer. Flow Cytometry data was acquired using BD Canto (BD Biosciences) in plate format and analyzed by FlowJo software. Staining data (MFI) was then input into Prism 5 software to generate binding curve. Curve-fit using one-site specific binding algorithm calculates individual KD for each variant.

Binder	Bmax(MFI)	Kd [nM]
B1	316	5.8
B2	553	1.8
B3	597	3.2
B4	629	5.8
B5	648	7

What follows are binders tested against T8, B7-H4-Ig fusion protein (human) (assay: competition ELISA on B7-H4-Ig-coated plate, Plate 1; competitor biotinylated mouse 6H3 (5 ng/ml)).
T8 construct: also called human B7-H4 Ig
Procedure: (§1) A 12-point, 3-fold dilution series of 14 humanized 6H3 antibody variants was prepared ranging from 100 μg/ml to 0.5 ng/ml. Dilutions were prepared in assay diluent containing biotinylated mouse anti-human B7-H4 6H3 (SEQ ID NOS:3 and 5 for light chain variable region and heavy chain variable region respectively) at 5 ng/ml. Antibodies were allowed to bind to B7-H4-Ig-coated assay plates (200 ng/well) for 1 hour at room temperature and detected with streptavidin HRP.

Binder	EC50
B1	2.44 µg/mL and 16.2 nM

These binders were tested against T8, B7-H4-Ig fusion protein (assay: competition ELISA on B7-H4-Ig-coated plate, Plate 2; competitor biotinylated mouse 6H3 (5 ng/ml)).
Procedure: as §1

Binder	EC50
B1	2.26 µg/mL and 15.1 nM
B2	2.69 µg/mL and 17.9 nM
B3	3 µg/mL and 20 nM
B4	2.49 µg/mL and 16.6 nM
B5	2.11 µg/mL and 14.1 nM

The binders below were run against T3, human B7-H4 expressed on cells (assay: saturation binding, flow cytometry on 624mel/B7-H4 cells, biotinylated mAb, azide-treated cells; unit not given).
Procedure: A saturation binding experiment was carried out on 624mel/B7-H4 cells using the chimeric 6H3 mAb and humanized variants of 6H3. Briefly, 50,000 cells were pretreated with 0.1% azide on ice for 30 minutes to inhibit B7-H4 internalization then stained for 30 minutes with biotinylated anti-B7-H4 mAbs. The mAbs were diluted in a 12-point, 3-fold dilution series ranging from 200 μg/ml down to 1 ng/ml. Cell were stained with streptavidin PE for 10 minutes, washed, fixed and analyzed by flow cytometry.
FIGS. 35A-35B are binding curves for the raw (FIG. 35A) and background subtracted data (FIG. 35B). […] The subtracted values were used to determine the Kd and Bmax. The antibodies appear to fall into two groups based on Kd values (Table 10).

Binder	Bmax
B1	5810
B2	4610
B3	4580
B4	5580

Target: T4, B7-H4 fusion protein Variant 1: IgV …
Assay: ELISA, B7-H4 Fc fusion protein immobilized at 1 µg/ml, mouse antibody titrated, anti-mouse Ig HRP
Procedure: (§2) 100 μl 1 μg/ml human IgG1 Fc fusion proteins diluted in PBS consisting of different segments of B7-H4 Extracellular domains were immobilized on flat bottom 96 well plates (Costar 9017) overnight at 4° C. […] Plates were washed twice with PBS+0.1% PS-20 and blocked with 200 μl/well PBS 10% FBS at RT for 1 hr. A titration of mouse anti-human B7-H4 antibodies 2H9, 2D1, 2E11, 6H3, 8E11 or H74 diluted in PBS 10% FBS were added to the plates and incubated at RT for 1 hr. Plates were washed three times and 100 μl 1 μg/ml anti-mouse Ig HRP (Sigma) was added to each well and incubated at RT for 1 hr. Plates were washed six times and 100 μl TMB substrate (SurModics) was added to each well for 5-15 mins. 100 μl stop solution (0.1M Sulfuric acid) was added to each well. Plates were read at Absorbance 450 nm by PerkinElmer EnVision 2104 Multilabel Reader.

Binder	binding result
B6	binds

Target: T5, B7-H4 fusion protein Variant 2: IgV …
Assay: as above
Procedure: as §2

Binder	binding result
B6	binds

Target: T6, B7-H4 fusion protein Variant 3: IgV …
Assay: as above
Procedure: as §2

Binder	binding result
B6	binds

These binders were tested against T7, B7-H4 fusion protein Variant 5: IgC … in the same assay as above.
Procedure: as §2

Binder	binding result
B7	binds

Reference: US20150315275A1 (AstraZeneca / MedImmune, published 2015)
